From patent US20190185581A1 (University of California, published 2019) come the findings set out here.

By EC50 is commonly meant the concentration at which the effect is half-maximal.

Assay [1] addresses T1, catalytic domain of MMP-14 (cdMMP-14) (human, UniProt P50281 114-287, limits assumed, biotinylated (Sulfo-NHS-LC-Biotin) where immobilised via streptavidin). The experiment in a line: cell-based or functional assay.
The target in assay [2] is T1, catalytic domain of MMP-14 (cdMMP-14). Kind of assay: ELISA, Fab titrated on immobilised biotin-cdMMP-14, anti-Fab-HRP. (ELISA stands for enzyme-linked immunosorbent assay.)
The target is the same in assay [3]. Kind of assay: ELISA, Fab titrated on immobilised MMP-14 catalytic domain, anti-Fab-HRP.
Experimental: Bound Fabs were detected using the anti-Fab-HRP conjugate. The half-maximal effective concentration (EC₅₀) was calculated from a four-parametric logistic curve-fitting analysis.

B1: Fab R2C6 (Fab, V domains shown)
VH: EVQLVESGGGLVQPGGSLRLSCAASGFNIYYSSMHWVRQAPGKGLEWVAYISPYYGYTSYADSVKGRFTISADTSKNTAYLQMNSLRAEDTAVYYCARKDLLKTNRLTTRYKKSVSVGYGMDYWGQGTLVTVSS
VL: DIQMTQSPSSLSASVGDRVTITCRASQSVSSAVAWYQQKPGKAPKLLIYSASSLYSGVPSRFSGSRSGTDFTLTISSLQPEDFATYYCQQYVYPPFTFGQGTKVEIKR
In the case of B1, the “Inhibition potency (FRET IC50)” value in assay [1] came out at 2400 nM. The EC50 in assay [2] stood at 2400 nM.

B2: Fab 32C11 (Fab, V domains shown)
VH: EVQLVESGGGLVQPGGSLRLSCAASGFNLYYSSIHWVRQAPGKGLEWVASISSYSSYTYYADSVKGRFTISADTSKNTAYLQMNSLRAEDTAVYYCAREIHMLSRQARYLRDGRRPRGSMYVMDYWGQGTLVTVSS
VL: DIQMTQSPSSLSASVGDRVTITCRASQSVSSAVAWYQQKPGKAPKLLIYSASSLYSGVPSRFSGSRSGTDFTLTISSLQPEDFATYYCQQYGAGLITFGQGTKVEIKR
notes: also called R3C7; not shown: His tag at the C-terminus of the heavy chain
In the case of B2, the EC50 in assay [2] and in assay [3] was 29 nM throughout.

B3: Fab 33F5 (Fab, V domains shown)
VH: EVQLVESGGGLVQPGGSLRLSCAASGFNLYYSYMHWVRQAPGKGLEWVAYISPSSSSTYYADSVKGRFTISADTSKNTAYLQMNSLRAEDTAVYYCARNFRVESAGRPGKTVLRKDGKYAMDYWGQGTLVTVSS
VL: DIQMTQSPSSLSASVGDRVTITCRASQSVSSAVAWYQQKPGKAPKLLIYSASSLYSGVPSRFSGSRSGTDFTLTISSLQPEDFATYYCQQSSVGLFTFGQGTKVEIKR
notes: also called R2C20; not shown: His tag at the C-terminus of the heavy chain
B3: the EC50 in assay [2] and in assay [3] was 1600 nM in each case.

B4: Fab 3B2 (Fab, V domains shown)
VH: EVQLVESGGGLVQPGGSLRLSCAASGFNFSSSSIHWVRQAPGKGLEWVASIYSSYSSTYYADSVKGRFTISADTSKNTAYLQMNSLRAEDTAVYYCARSTAATTLSRMSRSYWTIQLPYGMDYWGQGTLVTVSS
VL: DIQMTQSPSSLSASVGDRVTITCRASQSVSSAVAWYQQKPGKAPKLLIYSASSLYSGVPSRFSGSRSGTDFTLTISSLQPEDFATYYCQQSSYSLITFGQGTKVEIKR
notes: also called R2C1; not shown: His tag at the C-terminus of the heavy chain
Consider B4, for which the EC50 in assay [2] and in assay [3] was 590 nM throughout.

B5: Fab R2C12 (Fab, V domains shown)
VH: EVQLVESGGGLVQPGGSLRLSCAASGFNISSSYMHWVRQAPGKGLEWVASIYSYSSYTYYADSVKGRFTISADTSKNTAYLQMNSLRAEDTAVYYCARSDSWVQGRDFCYYSAWVGYGMDYWGQGTLVTVSS
VL: DIQMTQSPSSLSASVGDRVTITCRASQSVSSAVAWYQQKPGKAPKLLIYSASSLYSGVPSRFSGSRSGTDFTLTISSLQPEDFATYYCQQGYYALFTFGQGTKVEIKR
Regarding B5, the “Inhibition potency (FRET IC50)” value in assay [1] is 150 nM. The molecule further showed an EC50 in assay [2] of 150 nM.

B6: Fab R3C10 (Fab, V domains shown)
VH: EVQLVESGGGLVQPGGSLRLSCAASGFNIYYSSMHWVRQAPGKGLEWVASISPYYGYTYYADSVKGRFTISADTSKNTAYLQMNSLRAEDTAVYYCARGSLRRDFNLVVRSSWDIRSNYVMDYWGQGTLVTVSS
VL: DIQMTQSPSSLSASVGDRVTITCRASQSVSSAVAWYQQKPGKAPKLLIYSASSLYSGVPSRFSGSRSGTDFTLTISSLQPEDFATYYCQQSWPYPITFGQGTKVEIKR
As for B6, in assay [1], the “Inhibition potency (FRET IC50)” value turned out to be 1000 nM. Further, the EC50 in assay [2] was 970 nM.

B7: Fab R2C22 (Fab, V domains shown)
VH: EVQLVESGGGLVQPGGSLRLSCAASGFNIYSSYMHWVRQAPGKGLEWVASIYSSYGSTYYADSVKGRFTISADTSKNTAYLQMNSLRAEDTAVYYCARHSRDGWQHWFGNWAGLHSYGMDYWGQGTLVTVSS
VL: DIQMTQSPSSLSASVGDRVTITCRASQSVSSAVAWYQQKPGKAPKLLIYSASSLYSGVPSRFSGSRSGTDFTLTISSLQPEDFATYYCQQYYHYGYYLITFGQGTKVEIKR
Regarding B7, in assay [1], the “Inhibition potency (FRET IC50)” value was 75 nM. Besides, a half-maximal effect in assay [2] (EC50) was put at 540 nM.

B8: Fab R3C8 (Fab, V domains shown)
VH: EVQLVESGGGLVQPGGSLRLSCAASGFNFSSSSIHWVRQAPGKGLEWVASIYPSYSYTYYADSVKGRFTISADTSKNTAYLQMNSLRAEDTAVYYCARHCLLRSRRCEMSTKTRELNVYRYAMDYWGQGTLVTVSS
VL: DIQMTQSPSSLSASVGDRVTITCRASQSVSSAVAWYQQKPGKAPKLLIYSASSLYSGVPSRFSGSRSGTDFTLTISSLQPEDFATYYCQQWPVGSSYPITFGQGTKVEIKR
Consider B8, for which, in assay [1], the “Inhibition potency (FRET IC50)” value was found to be 5400 nM. The molecule also displayed an EC50 in assay [2] of 1300 nM.

B9: Fab R2C9 (Fab, V domains shown)
VH: EVQLVESGGGLVQPGGSLRLSCAASGFNIYSYSMHWVRQAPGKGLEWVAYIYPYSGYTYYADSVKGRFTISADTSKNTAYLQMNSLRAEDTAVYYCARVLNIFMDVGAARFPGLVRYGMDYWGQGTLVTVSS
VL: DIQMTQSPSSLSASVGDRVTITCRAGQDVSSAVAWYQQKPGKAPKLLIYSASTLHSGVPSRFSGSRSGTDFTLTISSLQPEDFATYYCQQSGPYSLFTFGQGTKVEIKR
For B9, the “Inhibition potency (FRET IC50)” value in assay [1] was 80 nM. This molecule showed an EC50 in assay [2] of 657 nM.

B10: Fab 2E4 (Fab, V domains shown)
VH: EVQLVESGGGLVQPGGSLRLSCAASGFNLSYSYIHWVRQAPGKGLEWVAYISSSSGYTYYADSVKGRFTISADTSKNTAYLQMNSLRAEDTAVYYCARSARLRLRGNHDRRRSKSVYYRPYVMDYWGQGTLVTVSS
VL: DIQMTQSPSSLSASVGDRVTITCRASQSVSSAVAWYQQKPGKAPKLLIYSASSLYSGVPSRFSGSRSGTDFTLTISSLQPEDFATYYCQQSSPSFPITFGQGTKVEIKR
notes: not shown: His tag at the C-terminus of the heavy chain
B10 came in with an EC50 in assay [3] of 840 nM.

B11: Fab 2H9 (Fab, V domains shown)
VH: EVQLVESGGGLVQPGGSLRLSCAASGFNIYYSSMHWVRQAPGKGLEWVASIYPYSGYTYYADSVKGRFTISADTSKNTAYLQMNSLRAEDTAVYYCARGTSFQVRCVLYRLLSPGRYVMDYWGQGTLVTVSS
VL: DIQMTQSPSSLSASVGDRVTITCRASQSVSSAVAWYQQKPGKAPKLLIYSASSLYSGVPSRFSGSRSGTDFTLTISSLQPEDFATYYCQQSGYSYPFTFGQGTKVEIKR
notes: as for B10
The molecule B11 gave an EC50 in assay [3] of 120 nM.

B12: Fab R2C4 (Fab, V domains shown)
VH: EVQLVESGGGLVQPGGSLRLSCAASGFNLSYYYMHWVRQAPGKGLEWVAYISSYSGYTYYADSVKGRFTISADTSKNTAYLQMNSLRAEDTAVYYCARGWRVYADRGHVRGYFRVWYGMDYWGQGTLVTVSS
VL: DIQMTQSPSSLSASVGDRVTITCRASQSVSSAVAWYQQKPGKAPKLLIYSASSLYSGVPSRFSGSRSGTDFTLTISSLQPEDFATYYCQQGAGLITFGQGTKVEIKR
Turning to B12, the “Inhibition potency (FRET IC50)” value in assay [1] was 1500 nM. In assay [2], this molecule registered an EC50 of 10000 nM.

B13: Fab R2C16 (Fab, V domains shown)
VH: EVQLVESGGGLVQPGGSLRLSCAASGFNIYSYSMHWVRQAPGKGLEWVASISSYYGYTYYADSVKGRFTISADTSKNTAYLQMNSLRAEDTAVYYCARFKNADFAAGGQWSKMLIARMYAMDYWGQGTLVTVSS
VL: DIQMTQSPSSLSASVGDRVTITCRASQSVSSAVAWYQQKPGKAPKLLIYSASSLYSGVPSRFSGSRSGTDFTLTISSLQPEDFATYYCQQYYSLITFGQGTKVEIKR
Regarding B13, the “Inhibition potency (FRET IC50)” value in assay [1] was determined as 5500 nM. For the same molecule, the EC50 in assay [2] was found to be 1800 nM.

B14: Fab R3C15 (Fab, V domains shown)
VH: EVQLVESGGGLVQPGGSLRLSCAASGFNISYSYMHWVRQAPGKGLEWVASISPYSGYTYYADSVKGRFTISADTSKNTAYLQMNSLRAEDTAVYYCARGVRGNKLRLLSSRSGRMESHYVMDYWGQGTLVTVSS
VL: DIQMTQSPSSLSASVGDRVTITCRASQSVSSAVAWYQQKPGKAPKLLIYSASSLYSGVPSRFSGSRSGTDFTLTISSLQPEDFATYYCQQAGSLFTFGQGTKVEIKR
For the molecule B14, in assay [1], the “Inhibition potency (FRET IC50)” value is 170 nM. The molecule also yielded an EC50 in assay [2] of 57.5 nM.

B15: Fab R2C8 (Fab, V domains shown)
VH: EVQLVESGGGLVQPGGSLRLSCAASGFNISSSSIHWVRQAPGKGLEWVASIYPYYGSTSYADSVKGRFTISADTSKNTAYLQMNSLRAEDTAVYYCARPGRHLQTTFKGYQFKYSRYIYAMDYWGQGTLVTVSS
VL: DIQMTQSPSSLSASVGDRVTITCRASQSVSSAVAWYQQKPGKAPKLLIYSASSLYSGVPSRFSGSRSGTDFTLTISSLQPEDFATYYCQQWGHHGYLITFGQGTKVEIKR
Take B15: in assay [1], the “Inhibition potency (FRET IC50)” value came out at 1200 nM. For the same molecule, the EC50 in assay [2] was 1200 nM.

B16: Fab R3C13 (Fab, V domains shown)
VH: EVQLVESGGGLVQPGGSLRLSCAASGFNIYYSYMHWVRQAPGKGLEWVASISSYSGSTSYADSVKGRFTISADTSKNTAYLQMNSLRAEDTAVYYCARWLRVSLKSGVYKVLARAVELDEYVMDYWGQGTLVTVSS
VL: DIQMTQSPSSLSASVGDRVTITCRASQSVSSAVAWYQQKPGKAPKLLIYSASSLYSGVPSRFSGSRSGTDFTLTISSLQPEDFATYYCQQSGYYAWPITFGQGTKVEIKR
Consider B16, for which, in assay [1], the “Inhibition potency (FRET IC50)” value came to 2000 nM. This molecule registered an EC50 in assay [2] of 2000 nM.

B17: Fab 32E10 (Fab, V domains shown)
VH: EVQLVESGGGLVQPGGSLRLSCAASGFNIYSYSMHWVRQAPGKGLEWVAYIYPYSGYTYYADSVKGRFTISADTSKNTAYLQMNSLRAEDTAVYYCARLDRDRYIHVGRAGNTYSNYYYVMDYWGQGTLVTVSS
VL: DIQMTQSPSSLSASVGDRVTITCRASQSVSSAVAWYQQKPGKAPKLLIYSASSLYSGVPSRFSGSRSGTDFTLTISSLQPEDFATYYCQQPWGAASLITFGQGTKVEIKR
notes: also called R2C19; not shown: His tag at the C-terminus of the heavy chain
Turning to B17, the EC50 in assay [2] and in assay [3] was 9.7 nM each time.

B18: Fab R2C11 (Fab, V domains shown)
VH: EVQLVESGGGLVQPGGSLRLSCAASGFNLYYSSIHWVRQAPGKGLEWVAYIYPSYSYTYYADSVKGRFTISADTSKNTAYLQMNSLRAEDTAVYYCARRYGSDVFCVGCFFGVRLSYVMDYWGQGTLVTVSS
VL: DIQMTQSPSSLSASVGDRVTITCRASQSVSSAVAWYQQKPGKAPKLLIYSASSLYSGVPSRFSGSRSGTDFTLTISSLQPEDFATYYCQQYVSSGSLITFGQGTKVEIKR
Regarding B18, in assay [1], the “Inhibition potency (FRET IC50)” value stood at 600 nM. In assay [2], this molecule yielded an EC50 of 750 nM.
